Patent publication US20230382966A1, “NOVEL KLOTHO INTERACTION SITE IN THE C-TERMINUS OF FGF23” (INDIANA UNIVERSITY RESEARCH AND TECHNOLOGY CORPORATION, priority 2020, published 2023)

Experiments:
[1] = tested on: FGF21-signaling in 293/KLB cells; experiment: Block of FGF21-signaling in 293/KLB cells; assay type: cell-based; conditions: Table 1, FGF21 associated antagonist
Description: The sequence homology in these endocrine FGF peptides (FGF23^180-205, FGF23^212-239, FGF19^191-216 and FGF21^185-209) is provided in FIG. 2.

[2] = tested on: FGFR/KL complex; experiment: FGF23-signaling activity (stimulation of Erk-phosphorylation) in 293/KL cells; assay type: cell-based, human; conditions: for EC50: Table 3, p-Erk
Protocol: (§1) FIGS. 5A-5D provide data relating to the activities of FGF23-analogs containing one or two active KL-interaction sites by in vitro and in vivo methods. […] FIGS. 5B-5D are scatter plots presenting an in vivo assessment of FGF23-activity in mice. WT mice were treated with 0.5 mg/kg body weight with either FGF23, FGF23 A^188, FGF23 A^222, FGF23 A^188,222, or vehicle, n=5 or 10/group, and post 3-hours the gene expression changes were studied by quantitative real time PCR for target genes, FIG. 5B represents measurement of Cyp24a1, FIG. 5C represents measurement of Cyp27b1, and FIG. 5D represents measurement of Egr1. The data is presented as a scatter plot where each dot represents one animal, mean ±SEM. One-way ANOVA with Tukey's comparison was employed for statistical analyses where***P<0.001 vs. vehicle; #P<0.05, ##P<0.01, ###P<0.001 vs FGF23; and $$$P<0.001 vs FGF23 A^188,222 was calculated.
Whether FGF23-based agonism can employ each of the two KL-interaction sites as witnessed in the C72 peptide antagonist was studied. To do so, a selective mutation at position Asp188 or Asp222 was made in the native FGF23. […] This is consistent with prior reports where C-terminal sequence deletion after residue 205 position had no apparent effect on cellular signaling (FIG. 5A, Table 3). […] Asp188 residue is purported to be singularly essential for KL-binding and FGF23 activity, and its importance was substantiated by the lack of antagonism when the C26 peptide was similarly mutated from Asp to Ala (FIG. 4A). […] To confirm that these observations were not resulting from unexpected changes in higher order structure that was not apparent in biosynthesis, purification, or formulation of the mutant proteins their biophysical integrity were directly assessed by thermal denaturation.
The N-terminal domain of the endocrine FGFs primarily determines the FGFR-activation while the C-terminal sequence guides the co-receptor specificity with a Klotho co-receptor, KL or KLB. The receptor complex specificity among the endocrine FGF-proteins can be modulated by altering their C-terminal domains. Consequently, two FGF21-23 chimeric protein analogs were prepared containing the FGF21 N-terminal core with its C-terminal KLB-binding peptide replaced with an FGF23 C-terminal peptide sequence constituted by C72 (FGF21-23 C72) or C26 (FGF21-23 C26) (Table 3).

[3] = tested on: FGFR/KL-downstream targets Cyp24a1, Cyp27b1 and Egr1; experiment: Mouse kidney gene expression after FGF23 protein analogs (quantitative real time PCR); assay type: in vivo; conditions: WT mice, 0.5 mg/kg, 3 hours
Protocol: as §1
To test whether C28 as the second KL-interaction site can promote FGF23 in vivo activity, the single site FGF23-analogs were assessed for their ability to alter kidney gene expression in normal mice. Four proteins (FGF23, FGF23 A188, FGF23 A222 or FGF23 A188, 222 analogs) were each dosed to mice 0.5 mg/kg and 3 hours later quantitative real time PCR was employed to assess kidney mRNA expression of the FGFR/KL-downstream targets Cyp24a1, Cyp27b1 and early growth response protein 1 (Egr1). […] This is not surprising since the optimal treatment time for Egrl modulation is as early as 1 hour for FGF-signaling measurements. The magnitude in upregulation of gene expression for Cyp24a1 was the highest, with twenty-fold induction by native FGF23 treatment (FIG. 5B). […] Similarly, the Egrl induction is reduced for FGF23 A188 and FGF23 A222 analogs as compared to native FGF23 (P<0.05, FIG. 5D), but no difference is observed among the analogs and FGF23 for Cyp27b1 (FIG. 5C).

FGFR/KL complex, sequence (Q9UEF7 34-1012, one chain of several): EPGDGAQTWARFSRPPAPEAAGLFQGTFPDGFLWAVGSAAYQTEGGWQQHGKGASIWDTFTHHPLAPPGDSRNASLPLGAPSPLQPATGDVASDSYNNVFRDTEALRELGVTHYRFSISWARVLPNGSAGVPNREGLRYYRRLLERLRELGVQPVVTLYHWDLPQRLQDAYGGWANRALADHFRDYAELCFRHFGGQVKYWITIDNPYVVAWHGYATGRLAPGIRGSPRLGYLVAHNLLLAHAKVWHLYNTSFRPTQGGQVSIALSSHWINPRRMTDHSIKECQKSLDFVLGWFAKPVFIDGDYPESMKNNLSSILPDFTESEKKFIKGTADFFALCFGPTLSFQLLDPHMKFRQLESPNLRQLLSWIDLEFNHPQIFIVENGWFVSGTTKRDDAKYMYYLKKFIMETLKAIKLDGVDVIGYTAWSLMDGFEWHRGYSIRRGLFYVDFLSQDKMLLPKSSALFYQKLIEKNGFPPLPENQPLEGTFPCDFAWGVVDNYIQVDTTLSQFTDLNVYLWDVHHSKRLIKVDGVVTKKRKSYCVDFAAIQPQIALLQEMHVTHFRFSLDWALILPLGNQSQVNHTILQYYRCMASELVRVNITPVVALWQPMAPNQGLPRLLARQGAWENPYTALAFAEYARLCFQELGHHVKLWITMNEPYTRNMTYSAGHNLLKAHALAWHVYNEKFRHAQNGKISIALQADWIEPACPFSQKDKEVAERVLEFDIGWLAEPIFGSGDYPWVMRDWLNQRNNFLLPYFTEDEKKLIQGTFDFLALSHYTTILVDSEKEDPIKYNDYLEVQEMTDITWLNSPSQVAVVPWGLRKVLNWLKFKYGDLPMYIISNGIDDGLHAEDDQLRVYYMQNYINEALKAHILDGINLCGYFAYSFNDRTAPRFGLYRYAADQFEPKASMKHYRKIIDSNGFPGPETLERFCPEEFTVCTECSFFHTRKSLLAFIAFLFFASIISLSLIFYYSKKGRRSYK

EC50 [2] [pM] | Molecule | IC50 [1] [pM] | FGF23-type agonism / FGFR/KL activation (in words) [2] | kidney Cyp24a1 mRNA expression vs vehicle [3] | kidney Cyp27b1 mRNA expression vs vehicle [3] | Egr1 induction as compared to native FGF23 ([3]; kidney) | magnitude of Cyp24a1 effect as compared to native FGF23 ([3]; kidney) | magnitude of upregulation of Cyp24a1 gene expression (induction) ([3]; kidney)
280 ± 80 | FGF23 A^188: FGF23^25-240, A^188 (protein) YPNASPLLGSSWGGLIHLYTATARNSYHLQIHKNGHVDGAPHQTIYSALMIRSEDAGFVVITGVMSRRYLCMDFRGNIFGSHYFDPENCRFQHQTLENGYDVYHSPQYHFLVSLGRAKRAFLPGMNPPPYSQFLSRRNEIPLIHFNTPIPRRHTRSAEDDSERAPLNVLKPRARMTPAPASCSQELPSAEDNSPMASDPLGVVRGGRVNTHAGGTG | – | retained full potency | significant elevation | coordinate suppression | reduced | fractionally reduced | –
160 ± 50 | FGF23: FGF23^25-240, native protein (protein) YPNASPLLGSSWGGLIHLYTATARNSYHLQIHKNGHVDGAPHQTIYSALMIRSEDAGFVVITGVMSRRYLCMDFRGNIFGSHYFDPENCRFQHQTLENGYDVYHSPQYHFLVSLGRAKRAFLPGMNPPPYSQFLSRRNEIPLIHFNTPIPRRHTRSAEDDSERDPLNVLKPRARMTPAPASCSQELPSAEDNSPMASDPLGVVRGGRVNTHAGGTG | – | – | significant elevation | coordinate suppression | – | – | twenty-fold

The remaining lines, values behind:

Molecule | EC50 [2] [pM] | IC50 [1] [pM] | FGF23-type agonism / FGFR/KL activation (in words) [2] | kidney Cyp24a1 mRNA expression vs vehicle [3] | kidney Cyp27b1 mRNA expression vs vehicle [3] | Egr1 induction as compared to native FGF23 ([3]; kidney) | magnitude of Cyp24a1 effect as compared to native FGF23 ([3]; kidney) | magnitude of upregulation of Cyp24a1 gene expression (induction) ([3]; kidney)
21C25: FGF21 associated antagonist (FGF21^185-209, C25) (PPDVGSSDPLSMVGPSQGRSPSYAS) | – | 75200 ± 19000 | – | – | – | – | – | –
FGF23 A^188,222: FGF23^25-240, A^188,222 (protein) YPNASPLLGSSWGGLIHLYTATARNSYHLQIHKNGHVDGAPHQTIYSALMIRSEDAGFVVITGVMSRRYLCMDFRGNIFGSHYFDPENCRFQHQTLENGYDVYHSPQYHFLVSLGRAKRAFLPGMNPPPYSQFLSRRNEIPLIHFNTPIPRRHTRSAEDDSERAPLNVLKPRARMTPAPASCSQELPSAEDNSPMASAPLGVVRGGRVNTHAGGTG | – | – | bioactivity was abrogated | inactive | inactive | statistically different | – | –
